Experimental data published in patent US20200046641A1, “LIPOSOMES FOR THE TREATMENT OF OCULAR DISEASES” (TDC Technology Dedicated to Care srl, priority 2018, published 2020).

System: inflamed eye of male albino rabbits
Test: In vivo treatment of ocular inflammation induced by arachidonic acid sodium salt
Set-up: species or system rabbit
Settings: 50 μl given 30 minutes after 0.5% arachidonic acid sodium salt; scored 30-210 minutes
Method: Inflammation in the eye of male albino rabbits as described in Example 7 is induced by applying a drop of eye drops containing 0.5% arachidonic acid sodium salt (SA-irritating agent) at time 0. After 30 minutes, the sample under examination is administered to the inflamed eye. Finally, the ocular inflammation index is evaluated at different time points. In the present test, the samples under examination were: • I) 50 μl of free lactoferrin (not encapsulated into the lipid bilayer of liposomes) dissolved in PBS (comparative example); • II) 50 μl of F2 liposomes.
As positive control (C+-comparative), a rabbit administered with SA at time 0, without any administration after 30 minutes, has been used.
The ocular inflammation has been evaluated for each time point at 30, 60, 90, 120, 150, 180 and 210 minutes and the inflammation index has been consequently calculated for each time point according to the tables of the previous Example.

B1: lactoferrin (protein, UniProt P02788 20-710, looked up)
Lactotransferrin: GRRRSVQWCAVSQPEATKCFQWQRNMRKVRGPPVSCIKRDSPIQCIQAIAENRADAVTLDGGFIYEAGLAPYKLRPVAAEVYGTERQPRTHYYAVAVVKKGGSFQLNELQGLKSCHTGLRRTAGWNVPIGTLRPFLNWTGPPEPIEAAVARFFSASCVPGADKGQFPNLCRLCAGTGENKCAFSSQEPYFSYSGAFKCLRDGAGDVAFIRESTVFEDLSDEAERDEYELLCPDNTRKPVDKFKDCHLARVPSHAVVARSVNGKEDAIWNLLRQAQEKFGKDKSPKFQLFGSPSGQKDLLFKDSAIGFSRVPPRIDSGLYLGSGYFTAIQNLRKSEEEVAARRARVVWCAVGEQELRKCNQWSGLSEGSVTCSSASTTEDCIALVLKGEADAMSLDGGYVYTAGKCGLVPVLAENYKSQQSSDPDPNCVDRPVEGYLAVAVVRRSDTSLTWNSVKGKKSCHTAVDRTAGWNIPMGLLFNQTGSCKFDEYFSQSCAPGSDPRSNLCALCIGDEQGENKCVPNSNERYYGYTGAFRCLAENAGDVAFVKDVTVLQNTDGNNNEAWAKDLKLADFALLCLDGKRKPVTEARSCHLAMAPNHAVVSRMDKVERLKQVLLHQQAKFGRNGSDCPDKFCLFQSETKNLLFNDNTECLARLHGKTTYEKYLGPQYVAGITNLKKCSTSPLLEACEFLRK
Treatment of ocular inflammation (ocular inflammation score, FIG. 1): not obtained
